Laboratory results published in IntAct's records for PubMed 25009770.

How the values were obtained:
[1] = molecular target: T1, psmd9_human PSMD9 (UniProt O00233)
T1 sequence: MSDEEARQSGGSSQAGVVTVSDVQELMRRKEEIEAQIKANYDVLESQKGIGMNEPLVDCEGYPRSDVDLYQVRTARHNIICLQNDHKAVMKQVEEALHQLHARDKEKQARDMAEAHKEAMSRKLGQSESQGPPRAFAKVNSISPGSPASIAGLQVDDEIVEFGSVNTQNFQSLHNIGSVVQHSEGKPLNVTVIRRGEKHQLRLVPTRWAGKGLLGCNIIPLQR

[2] = molecular target: T1, psmd9_human PSMD9; remark: listed apart in the source

“Small ribosomal subunit protein uS11 (Homo sapiens) (from UniProt P62263) L151G” was tested, and the “effect of a mutation on the interaction” value [1] was “decreasing interaction strength” and the “effect of a mutation on the interaction” value [2] was “disrupting interaction strength”.
